Assay results: patent publication US20060134099A1

Molecular target: dog street rabies virus DRV-4
Test: cell-based or functional assay

B1: plant-derived human rabies monoclonal antibody MAb^P (rabies human MAb S057 expressed in transgenic (antibody, V domains shown)
VH: QVQLVQSGAEVKKPGSSVKVSCKASGGTFNRYTVNWVRQAPGQGLEWMGGIIPIFGTANYAQRFQGRLTITADESTSTAYMELSSLRSDDTAVYFCARENLDNSGTYYYFSGWFDPWGQGTLVTVSS
VL: QSALTQPRSVSGSPGQSVTISCTGTSSDIGGYNFVSWYQQHPGKAPKLMIYDATKRPSGVPDRFSGSKSGNTASLTISGLQAEDEADYYCCSYAGDYTPGVVFGGGTKLTVLG
With B1 the Virus neutralizing antibody (VNA) titer, RFFIT was 81 IU/ml.
